From PMC6944378, “Ecotin, a microbial inhibitor of serine proteases, blocks multiple complement dependent and independent microbicidal activities of human serum” (PLoS Pathogens, 2019)

T1: MASP-1 catalytic fragment (CCP1-CCP2-SP) (UniProt P48740 299-699)
T1 construct: MASP-1, active catalytic fragment containing the CCP1-CCP2-SP domains
T1 sequence: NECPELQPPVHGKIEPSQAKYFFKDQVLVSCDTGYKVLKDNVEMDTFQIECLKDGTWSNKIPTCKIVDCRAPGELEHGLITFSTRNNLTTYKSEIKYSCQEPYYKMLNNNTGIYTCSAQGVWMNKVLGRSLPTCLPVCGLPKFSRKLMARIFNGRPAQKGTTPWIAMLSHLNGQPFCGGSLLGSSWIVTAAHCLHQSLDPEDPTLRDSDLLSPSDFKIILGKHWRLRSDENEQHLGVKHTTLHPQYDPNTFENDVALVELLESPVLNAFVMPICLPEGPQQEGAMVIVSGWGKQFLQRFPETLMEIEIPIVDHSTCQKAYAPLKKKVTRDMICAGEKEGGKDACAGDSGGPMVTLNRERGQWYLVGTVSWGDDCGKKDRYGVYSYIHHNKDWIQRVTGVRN

T2: MASP-3 catalytic fragment (CCP1-CCP2-SP) (UniProt P48740-2 299-728)
T2 sequence: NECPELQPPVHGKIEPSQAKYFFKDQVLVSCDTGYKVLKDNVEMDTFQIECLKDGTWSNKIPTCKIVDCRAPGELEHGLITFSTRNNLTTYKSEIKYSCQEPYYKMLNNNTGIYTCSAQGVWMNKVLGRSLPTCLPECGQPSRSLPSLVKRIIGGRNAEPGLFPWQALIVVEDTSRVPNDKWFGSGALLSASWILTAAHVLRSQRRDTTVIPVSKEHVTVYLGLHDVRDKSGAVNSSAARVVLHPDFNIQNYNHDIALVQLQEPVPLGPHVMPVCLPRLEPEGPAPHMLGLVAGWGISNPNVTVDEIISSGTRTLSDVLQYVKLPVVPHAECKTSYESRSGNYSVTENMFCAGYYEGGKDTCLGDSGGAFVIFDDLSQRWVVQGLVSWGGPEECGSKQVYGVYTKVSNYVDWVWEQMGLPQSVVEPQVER

T3: C1s catalytic fragment (CCP1-CCP2-SP) (UniProt P09871 292-688)
T3 construct: C1s, active catalytic fragment containing the CCP1-CCP2-SP domains
T3 sequence: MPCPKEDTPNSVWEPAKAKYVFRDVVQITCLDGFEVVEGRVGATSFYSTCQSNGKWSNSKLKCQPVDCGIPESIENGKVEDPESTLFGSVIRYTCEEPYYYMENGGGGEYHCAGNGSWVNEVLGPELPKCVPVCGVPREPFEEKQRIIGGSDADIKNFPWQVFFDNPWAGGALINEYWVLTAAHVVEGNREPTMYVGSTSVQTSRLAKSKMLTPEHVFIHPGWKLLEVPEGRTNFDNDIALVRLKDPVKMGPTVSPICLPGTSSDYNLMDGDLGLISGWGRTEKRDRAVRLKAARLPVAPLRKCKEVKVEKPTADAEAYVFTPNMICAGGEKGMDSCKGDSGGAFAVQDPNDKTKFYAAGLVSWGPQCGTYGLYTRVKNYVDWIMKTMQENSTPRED

B1: E. coli ecotin (natural protein)
chain: not shown
notes: also called recombinant E. coli ecotin
B2: Y. pestis ecotin (natural protein)
chain: DTPTPLNQQQPLEKIAPYPQAEKGMSRQVIFLEPQKDESRFKVELLIGKTLNVDCNRHMLGGNLETRTLSGWGFDYLVMDKISQPASTMMACPEDSKPQVKFVTANLGDAAMQRYNSRLPIVVYVPQGVEVKYRIWEAGEDIRSAQVK
notes: also called Yersinia pestis ecotin ortholog
B3: P. aeruginosa ecotin (natural protein)
chain: not shown
notes: also called Pseudomonas aeruginosa ecotin ortholog
B4: L. major ecotin (ISP2) (natural protein)
chain: MPAGMSDAAGKTLADFKAPYPEPTSQQRRYVIFLDPKGDSKELNDYKVELIPGRVEKVDGTNVYRMGGNIEERTIDGWGYPYYIVTLTTMSGTLMMPLGDAALKRPRFVAMNTKNLYRYNSRLPIVVYMPKDGELRYRIWTVKSTGSGTAKSTKAREM
notes: His6-tag cleaved off with TEV protease; also called Leishmania major ISP2 ortholog; not shown: His6, N-terminal, cleaved

Experiments:
factor D = molecular target: T4, factor D (human, UniProt P00746 26-253); assay: equilibrium enzyme inhibition titration (residual activity; Green and Work); fixed protease incubated with increasing inhibitor to equilibrium; free enzyme read with 250 μM Z-L-Lys-SBzl + 500 μM DTNB; 20 mM HEPES, 145 mM NaCl, 5 mM CaCl2, 0.05% Triton X-100, pH 7.5; apparent KI corrected with KM where marked [a]; settings: both partners purified
T4 construct: the KI was measured on recombinant FD; that the recombinant FD was made from it is surmised; also called FD; recombinant FD

[1] = molecular target: T1, MASP-1 catalytic fragment (CCP1-CCP2-SP); assay: as above; settings: both partners purified
[2] = molecular target: T5, MASP-2 catalytic fragment (CCP1-CCP2-SP) (UniProt O00187 298-686); assay: as above; settings: both partners purified
T5 construct: MASP-2, active catalytic fragment containing the CCP1-CCP2-SP domains

[3] = molecular target: T2, MASP-3 catalytic fragment (CCP1-CCP2-SP); assay: equilibrium enzyme inhibition titration (residual activity; Green and Work); tight-binding format: fixed MASP-3 incubated with increasing ecotin to equilibrium; 250 μM Z-L-Lys-SBzl + 40 μM Thiol Fluorescent Probe IV; 20 mM HEPES, 145 mM NaCl, 5 mM CaCl2, 0.05% Triton X-100, pH 7.5; settings: both partners purified
[4] = molecular target: T2, MASP-3 catalytic fragment (CCP1-CCP2-SP); assay: cell-based or functional assay
[5] = molecular target: T3, C1s catalytic fragment (CCP1-CCP2-SP); assay: equilibrium enzyme inhibition titration (residual activity; Green and Work); fixed protease incubated with increasing ecotin to equilibrium; 250 μM Z-Gly-Arg-SBzl + 500 μM DTNB; 20 mM HEPES, 145 mM NaCl, 5 mM CaCl2, 0.05% Triton X-100, pH 7.5; apparent KI corrected with a KM from the literature; settings: both partners purified
[6] = molecular target: T2, MASP-3 catalytic fragment (CCP1-CCP2-SP); assay: […]; 20 mM HEPES, 145 mM NaCl, 5 mM CaCl2, 0.05% Triton X-100, pH 7.5; […]; settings: both partners purified
[7] = molecular target: T1, MASP-1 catalytic fragment (CCP1-CCP2-SP); assay: as above; settings: both partners purified
[8] = molecular target: T5, MASP-2 catalytic fragment (CCP1-CCP2-SP); assay: as above; settings: both partners purified
[9] = molecular target: T2, MASP-3 catalytic fragment (CCP1-CCP2-SP); assay: equilibrium enzyme inhibition titration (residual activity; Green and Work); fixed protease incubated with increasing inhibitor to equilibrium; free enzyme read with 250 μM Z-L-Lys-SBzl + 500 μM DTNB; 20 mM HEPES, 145 mM NaCl, 5 mM CaCl2, 0.05% Triton X-100, pH 7.5; apparent KI corrected with KM where marked [a]; settings: both partners purified
[10] = molecular target: T5, MASP-2 catalytic fragment (CCP1-CCP2-SP); assay: cell-based or functional assay

T5 sequence (O00187 298-686): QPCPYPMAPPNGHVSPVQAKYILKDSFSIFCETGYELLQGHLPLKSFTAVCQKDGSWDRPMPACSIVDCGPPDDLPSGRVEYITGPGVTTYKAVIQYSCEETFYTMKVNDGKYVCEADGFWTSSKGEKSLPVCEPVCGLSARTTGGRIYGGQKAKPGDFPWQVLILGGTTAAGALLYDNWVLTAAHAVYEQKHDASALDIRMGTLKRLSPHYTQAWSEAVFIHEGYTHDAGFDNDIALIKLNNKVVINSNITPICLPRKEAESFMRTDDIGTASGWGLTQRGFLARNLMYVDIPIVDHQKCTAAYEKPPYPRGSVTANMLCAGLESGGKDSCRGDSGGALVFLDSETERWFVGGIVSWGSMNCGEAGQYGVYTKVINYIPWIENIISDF
T4 sequence (P00746 26-253): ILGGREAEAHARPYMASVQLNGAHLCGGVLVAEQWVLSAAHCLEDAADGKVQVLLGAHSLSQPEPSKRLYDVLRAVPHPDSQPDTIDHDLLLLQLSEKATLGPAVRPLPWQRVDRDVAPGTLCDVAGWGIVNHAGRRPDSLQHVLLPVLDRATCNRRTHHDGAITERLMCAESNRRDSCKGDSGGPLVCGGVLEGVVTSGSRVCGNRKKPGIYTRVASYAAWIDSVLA

Row | Binder | Ki (factor D) | Ki [1] | Ki [2] | Ki [3] | half-life of Cy3-labelled pro-FD in NHS at 37 °C with 1 μM ecotin pre-incubated 10 min with the serum (3 hours without inhibitor) [4] | Ki [5] | Ki [6] | Ki [7] | Ki [8] | Ki [9] | IC50 of mannan-triggered LP-driven C3-deposition ELISA in 2% NHS (the most efficient LP inhibitor of the four orthologs) [10]
1 | B1 | 4060 nM | 4200 nM | 11 nM | 0.52 nM | 10 h | 25200 ± 4450 nM | – | – | – | – | –
2 | B2 | – | – | – | – | – | – | 800 nM | 35000 nM | 2.2 nM | – | –
3 | B3 | – | 34 nM | 76 nM | – | – | – | – | – | – | 9.6 nM | 84 to 190 nM
4 | B4 | – | 2700 nM | 8.8 nM | – | – | – | – | – | – | 4.1 nM | –
